In patent publication EP4624492A1:
Residue numbers refer to the chain shown, from its start. Read-outs that look alike come from different tables or passages of the source. One block for each binder: values may come before it.

Tests used:
human CCR8 (human) [1] = target: human CCR8 (human) (UniProt P51685); assay: cell-based or functional assay
human CCR8 (human) [2] = target: human CCR8 (human) (UniProt P51685); assay: flow cytometry on 293F-hCCR8 cells
human CCR8 (human) [3] = target: human CCR8 (human) (UniProt P51685); assay: flow cytometry on 293F-hCCR8 cells; remark: listed apart in the source
human CCR8 (human) [4] = target: human CCR8 (human) (UniProt P51685); assay: flow cytometry on 293F-hCCR8 cells; remark: listed apart in the source
human CCR8 (human) [5] = target: human CCR8 (human) (UniProt P51685); assay: flow cytometry on CHOK1-hCCR8 cells
[6] = target: cynomolgus CCR8 (cynomolgus monkey); assay: flow cytometry on 293T-cynoCCR8 cells
[7] = target: cynomolgus CCR8 (cynomolgus monkey); assay: flow cytometry on 293T-cynoCCR8 cells; remark: listed apart in the source
human CCR8 (human) [8] = target: human CCR8 (human) (UniProt P51685); assay: flow cytometry on HuT78 cells (endogenous CCR8)
human CCR8 (human) [9] = target: human CCR8 (human) (UniProt P51685); assay: flow cytometry, competition with 10 nM AF647-human CCL1 on 293F-hCCR8 cells
human CCR8 (human) [10] = target: human CCR8 (human) (UniProt P51685); assay: as above; remark: listed apart in the source
human CCR8 (human) [11] = target: human CCR8 (human) (UniProt P51685); assay: as above; remark: listed apart in the source

human CCR8 (human), sequence (P51685 whole entry): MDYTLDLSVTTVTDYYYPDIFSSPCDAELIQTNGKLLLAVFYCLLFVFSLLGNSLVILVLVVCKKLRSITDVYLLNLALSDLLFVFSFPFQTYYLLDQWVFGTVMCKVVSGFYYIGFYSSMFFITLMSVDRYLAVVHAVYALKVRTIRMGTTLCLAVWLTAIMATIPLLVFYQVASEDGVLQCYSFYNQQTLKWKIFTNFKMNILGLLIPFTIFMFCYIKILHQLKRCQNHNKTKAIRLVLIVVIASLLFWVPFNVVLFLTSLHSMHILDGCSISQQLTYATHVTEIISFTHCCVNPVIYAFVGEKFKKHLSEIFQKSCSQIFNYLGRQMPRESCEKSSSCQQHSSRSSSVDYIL

EC50 of activation of Jurkat-human FcγRIIIa(158V)-NFAT with 293F-hCCR8 target cells (human CCR8 (human) [1]): 0.855 µg/mL
B3: 559E1B10_hzH0L0_hIgG1 (antibody, V domains shown)
VH: QVQLVQSGAEVKKPGASVKVSCKASGYTFTDYYVNWVRQAPGQGLEWMGVINPHNGDTRYNQKFKGRVTMTRDTSTSTVYMELSSLRSEDTAVYYCASWLRRGYYFDSWGQGTTVTVSS
VL: EIVLTQSPATLSLSPGERATLSCRASQSISDYLHWYQQKPGQAPRLLIYYVSQSISGIPARFSGSGSGTDFTLTISSLEPEDFAVYYCQNGHSFPLTFGGGTKVEIKR

EC50 of activation of Jurkat-human FcγRIIIa(158V)-NFAT with 293F-hCCR8 target cells (human CCR8 (human) [1]): 1.69 µg/mL
B5: 559E1B10_hzH1L0_hIgG1 (antibody, V domains shown)
VH: B3 VH with R72V, T74K
VL: B3 VL

EC50 of ADCC effect (lysis%) by human PBMCs on CHOK1-hCCR8 cells (human CCR8 (human) [1]): 0.00238 µg/mL
EC50 of activation of Jurkat-human FcγRIIIa(158V)-NFAT with 293F-hCCR8 target cells (human CCR8 (human) [1]): 0.0131 µg/mL
EC50 of activation of Jurkat-human FcγRIIIa(158V)-NFAT with CHOK1-hCCR8 target cells (human CCR8 (human) [1]): 0.0265 µg/mL
EC50 (human CCR8 (human) [5]): 0.0356 µg/mL
EC50 (human CCR8 (human) [8]): 0.0364 µg/mL
B6: B16_hIgG1 (antibody, from another filing, V domains shown)
VH: EVQLVESGGGLVQPGGSLKLSCAASGFTFNTYAMNWVRQASGKGLEWVGRIRSKSNNYATYYADSVKDRFTISRDDSKNTAYLQMNSLKTEDTAVYYCVRGLLRYRFFDVWGQGTTVTVSS
VL: DIVMTQSPLSLPVTPGEPASISCRSSKSLLHSNGNTYLYWFLQKPGQSPQLLIYRMSNLASGVPDRFSGSGSGTDFTLKISRVEAEDVGVYYCMQHLEYPFTFGGGTKVEIKR

The remaining lines, values behind:

B1: anti-human CCR8 433H (antibody, from another filing, V domains shown)
VH: EVQLVETGGGLVQPKGSLRLSCAASGFPFNTFAMNWVRQAPGKGLEWLARIRSKSNNYATYYADSVKDRFTISRDDSRRMLYLLMNNVKFEDTAIYYCVRGKENNYGYAMDYWGQGTSVTVSS
VL: DIVMTQAAPSVPVTPGESVSISCRSSQSLLHSNGNTYLYWFLQRPGQSPQLLIYRMSNLASGVPDRFSGSGSGTAFTLRISRVEAEDVGVYYCMQHLEYPFTFGIGTKLELKR
IC50 of blockade of CCL1-induced β-arrestin recruitment (human CCR8 (human) [1]): 2.36 µg/mL
IC50 of blockade of CCL1-induced β-arrestin recruitment (Tango-H CCR8-CHO-K1 cells) (human CCR8 (human) [1]): 1.29 µg/mL
EC50 (human CCR8 (human) [2]): 0.206 µg/mL
EC50 (human CCR8 (human) [3]): 0.153 µg/mL
EC50 (human CCR8 (human) [4]): 0.156 µg/mL
EC50 (human CCR8 (human) [5]): 0.0788 µg/mL
EC50 [6]: 15.3 µg/mL
EC50 [7]: 14.6 µg/mL
EC50 (human CCR8 (human) [8]): 0.0763 µg/mL
IC50 (human CCR8 (human) [9]): 0.0943 µg/mL
IC50 (human CCR8 (human) [10]): 0.0705 µg/mL
IC50 (human CCR8 (human) [11]): 0.0965 µg/mL

B2: 4A19_hIgG1 (antibody, from another filing, V domains shown)
VH: QVQLVQSGAEVKKPGASVKVSCKASGYTFTDSEMHWVRQATGQGLEWMGAIQPETGGTAYNQKFKARVTMTRDTSISTAYMELSSLRSEDTAVYYCARRRRNFDYWGQGTLVTVSS
VL: DIVMTQTPLSLSVTPGQPASISCRSSQSLFHSSGNTYLHWYLQKPGQPPQLLIYKVSNRFSGVPDRFSGSGSGTDFTLKISRVEAEDVGVYYCSQSTHVPFTFGQGTKLEIKR
EC50 of activation of Jurkat-human FcγRIIIa(158V)-NFAT with CHOK1-hCCR8 target cells (human CCR8 (human) [1]): 0.0141 µg/mL

B4: 559E1B10_hzH2L0_hIgG1 (antibody, V domains shown)
VH: B3 VH with M48I, V68A, M70L, R72V, T74K
VL: B3 VL
EC50 of activation of Jurkat-human FcγRIIIa(158V)-NFAT with 293F-hCCR8 target cells (human CCR8 (human) [1]): 0.706 µg/mL
